# The RNAGym collection of RNA variant scans (doi:10.7554/elife.90254)
# B1: LINE1-full (parent)
# chain: UACGUAGGUGGUUUUCCCCUGAUAGUGCUAAGGGGGCCUGGAAGUUUGGACUGGGCAGAGCUCAACACAGCGUGGCAAAGUGGCUGUGGCUAGACUGCCUCUCUGGAUUCCUCGUCACUCAGCAGGGCAUCUCUGAGAGAAAUGCC
# Variants of: B1
# Test: self-cleavage, relative activity (ratio to wild type); higher = more cleavage; in vitro, sequencing; the parent is a self-cleaving ribozyme
row,Variant,self-cleavage
1,G114A A124G,1.5
2,G114A A124C,1.62
3,U109C A129G,1.3
4,U109C A129U,1.97
5,U108A A129U,1.92
6,U112A U132C,1.42
7,G114A U130C,1.42
8,U108A U132A,1.24
9,U108A U132C,1.65
10,U108C U112C,1.74
11,U108C U112A,1.94
12,U112C A121G,1.71
13,U112C A121U,1.09
14,G114A A121U,1.37
15,A117G U134C,1.73
16,C110A U115C,1.47
17,A107U A140G,1.58
18,U109G U143C,0.87
19,U108A G122U,0.97
20,U109C G127A,1.49
21,U109C G127U,1.25
22,U115A C123A,1.7
23,A107G U112A,1.45
24,A107G U112C,1.68

row,Variant,self-cleavage
1,A107G U108A,1.47
2,A107G U108G,1.53
3,A107G U134A,1.45
4,A107G U134C,1.33
5,U115A A121G,1.47
6,U115A A121U,1.5
7,U109A A140G,0.96
8,U108A U119A,0.96
9,U108A U119C,1.41
10,C111U C116A,1.37
11,U108G U143C,1.14
12,U112C U143C,1.54
13,U112C U143A,1.59
14,U115G A121G,1.62
15,C113U G135A,1.18
16,U115A U134C,1.49
17,A117G U130A,1.85
18,A117G U130C,1.42
19,U112A A140G,1.46
20,A117G U119G,1.87
21,A117G U119A,1.17
22,A117G U119C,1.47
23,U115A A136U,1.52
24,A117U A141G,1.1

row,Variant,self-cleavage
1,A117U A141U,2.24
2,C111U G114A,1.12
3,U109C U134C,1.21
4,U115C U134A,0.9
5,G114C A142G,1.78
6,A117G A136U,1.48
7,A117G A136G,1.66
8,C116A A141U,1.47
9,U109C A136G,1.75
10,U112C A138G,1.58
11,U112C A138C,1.98
12,A117C A138G,2.04
13,A117C A138U,2.44
14,U115C A136G,1.83
15,U108C A117U,1.83
16,G114A C116U,0.76
17,U109A U132C,1.37
18,U108C A129G,1.57
19,U108C A129C,1.69
20,U108C A129U,1.89
21,A117G A129G,1.32
22,A117G A129C,1.93
23,U109C U143C,1.29
24,C116U,1.29

row,Variant,self-cleavage
1,C116A,1.16
2,G114A A140C,1.27
3,G114A A140U,1.55
4,G114A A140G,1.14
5,U109A A136U,2.61
6,U109A A136G,1.4
7,U108A C133A,1.42
8,U109C C128A,1.47
9,C113A A142G,0.47
10,U112C A124U,1.21
11,U109C A140G,0.48
12,U109C A140U,1.15
13,U109A G122A,1.63
14,U108C C118U,2.01
15,A107U A124U,1.61
16,A107U A124G,1.29
17,A107U G144A,1.79
18,U115C U132C,1.84
19,U115C U132A,2.4
20,U115G A129U,1.34
21,A117U A129U,1.78
22,A117U A129C,1.23
23,A107U U132A,1.88
24,U115C G126A,1.85

row,Variant,self-cleavage
1,U109C G135A,1.71
2,C113A C145U,1.25
3,A117G C133U,2.55
4,U109A U119C,1.95
5,U115C A138U,1.64
6,C110U U112C,2.13
7,U115A A138U,1.77
8,U115A A138G,1.29
9,U115C G137U,2.16
10,U115C G137A,1.15
11,U109G A141G,0.93
12,U109G A141U,1.08
13,G114A U143G,1.41
14,G114A U143A,0.68
15,G114A U143C,1.02
16,U115C A124G,1.13
17,U115C A124U,1.69
18,U109C G122A,1.81
19,C116U U130C,0.89
20,U109A G139A,1.49
21,U109A U112C,1.08
22,U109A U112A,1.35
23,A107G U132C,1.62
24,C111U U134C,2.26

row,Variant,self-cleavage
1,U109A C145G,0.98
2,U108C C128U,1.78
3,U112A G144A,1.32
4,U112C U132C,1.28
5,U115C A141G,1.76
6,C110U A142G,2.11
7,U109G U112C,0.19
8,G114U A141U,1.61
9,A117U G137C,2.13
10,A117U U119A,0.99
11,U112C U119C,1.6
12,U112C C113U,1.28
13,C111U U143C,1.13
14,U108G U134C,2.7
15,A117C G139A,1.65
16,U108C A140U,1.66
17,U112C A129G,1.42
18,A117U C146G,0.92
19,U115C U143C,1.61
20,U115C U143A,1.79
21,C113U G144A,0.31
22,U112C U130C,1.61
23,U112C U130G,1.56
24,A107G U143C,1.38

row,Variant,self-cleavage
1,U112A A136U,1.67
2,A107U A138U,2.59
3,U112A A124U,1.61
4,C110A A121U,1.32
5,U109C C146U,1.53
6,U115A C131U,1.65
7,U115G U143C,1.86
8,U109A G125A,1.34
9,U115A G127A,1.21
10,A117G G125U,1.47
11,A117G G125A,0.99
12,U112A U115A,1.4
13,U112A C113U,1.6
14,U115C G125A,1.82
15,U115C A117U,1.79
16,U109C A117G,1.7
17,U108C U143A,0.26
18,C116U A117G,1.61
19,A117G C120U,2.18
20,U115A U119C,2.02
21,U115C U119A,1.78
22,U115C U119G,2.63
23,A117U U130A,1.55
24,C113U A138U,1.21

row,Variant,self-cleavage
1,C113U A138G,1.54
2,A117G A124U,1.25
3,C113U U134C,0.97
4,C113U U134A,0.47
5,U108C G137A,0.89
6,C110U A117G,2.38
7,C110A A141G,1.84
8,C113U A136G,1.58
9,C116A A138G,1.52
10,G114U A136G,1.49
11,G114U A136U,1.23
12,U108C U119A,1.53
13,U109C U115G,1.04
14,U109C A141G,1.46
15,U112G C128U,2.54
16,C113U U143A,1.1
17,U115A A124G,0.93
18,U115C G135A,2.23
19,U115A A117G,1.61
20,U108A U115A,0.6
21,U115A C145U,1.3
22,U112C G137A,1.17
23,U112C G137U,0.88
24,U109G A138U,1.07

row,Variant,self-cleavage
1,U108A G114A,1.09
2,U115C A142U,1.56
3,U115C A142C,2.05
4,U109A A138G,0.7
5,A117C A136G,1.79
6,C116U A142G,1.27
7,U112A U143A,1.38
8,U112C A117G,1.42
9,U112C A117U,1.39
10,G114A U119A,1.26
11,C113U U132C,0.89
12,C111U A138G,2.01
13,U108G,1.5
14,U108A,1.24
15,U108C,1.64
16,C113A A140G,1.06
17,C110U A141G,1.4
18,A117G A141G,1.71
19,A117G A141U,1.69
20,U115A U130C,1.62
21,U109C U112C,1.69
22,U109C U112A,2.11
23,U108A U130C,1.51
24,U112C A140U,1.29

row,Variant,self-cleavage
1,A107U C113A,1.68
2,U108A U112C,2.53
3,U108C A138U,1.68
4,U109A A129U,2.02
5,U115A C133U,1.04
6,A107U A117C,2.32
7,C113A A117U,1.03
8,U108A U134C,1.19
9,U108C G126A,2.16
10,U112C U115A,1.39
11,G114U U134A,1.09
12,U109C,1.2
13,U109A,1.31
14,U109G,0.63
15,C113G U143C,1.36
16,C116U A124G,1.11
17,U108C A136U,1.93
18,C113A U143C,0.76
19,U115C G144C,2.13
20,A117G A138U,1.13
21,A117G A138G,1.59
22,U112C A141U,1.47
23,A107G U109A,1.83
24,A117G G139U,2.05

row,Variant,self-cleavage
1,A107G U130G,1.15
2,A107G U130A,1.74
3,U112G A136G,2.3
4,U112G A136U,0.88
5,C111U U130A,0.93
6,U115C C128U,1.4
7,A117U C131U,1.21
8,U115C C123A,1.49
9,C111U U115A,1.77
10,C110G A141G,1.37
11,U108A A140G,1.58
12,U108C U115A,1.86
13,U112A A129G,0.98
14,U115C G139U,1.79
15,A117C G144U,1.13
16,U108C A124U,1.81
17,U108C A124G,1.47
18,U109A U115A,1.47
19,U109A U115C,1.43
20,G114A A142U,1.56
21,G114A A142G,1.31
22,U115C U130C,2.03
23,U115C U130A,1.78
24,A117G C123U,1.48

row,Variant,self-cleavage
1,U108G A140G,0.29
2,A107U U112C,1.84
3,U112C U134G,1.34
4,A117U C123U,0.78
5,U112A A117U,1.36
6,U112C C116G,2.13
7,U108A A124U,1.35
8,U112A G114A,0.38
9,U109G A140G,0.21
10,U108C G114A,1.71
11,U115C C116U,1.18
12,A117U A124G,1.3
13,C113U A124U,1.3
14,A117U A121U,1.57
15,A117U A121G,1.81
16,C110A G122A,0.9
17,U115C C146U,1.31
18,U115C C146G,1.93
19,U108C G139A,0
20,G114A A136G,1.28
21,G114A U132C,1.45
22,U109C A124C,1.41
23,U109C A124U,1.64
24,A107U U143A,1.48

row,Variant,self-cleavage
1,U112C G122C,1.18
2,U112C G122U,1.86
3,C110U C113A,1.35
4,G114C U115C,1.24
5,C113A A141G,1.23
6,A117C U119A,1.77
7,U109A C111U,1.56
8,U112A A142C,1.46
9,U112A A142G,1.57
10,U115C A129C,1.68
11,U115C A129U,2.01
12,A117U G126U,1.11
13,U108C U134C,1.57
14,U108C U134A,2.21
15,C110A U130C,1.04
16,U108C U132A,2.04
17,U108C U132C,1.83
18,C113A,1.01
19,C113G,1.58
20,C113U,0.98
21,C111U A121C,1.54
22,U108C U130A,2.75
23,U108G U119C,2.59
24,C113U A121U,1.53

row,Variant,self-cleavage
1,C110U G122A,1.09
2,A117G G122U,1.52
3,A107U,1.46
4,U115C C145A,1.84
5,U108A A138C,1.32
6,A117C C128U,1.3
7,C110A A124G,1.62
8,A117U A140G,1.43
9,U108C G125A,1.22
10,U109C C110A,1.55
11,U109A U134G,1.25
12,U109A U134C,1.67
13,U109A U134A,0.68
14,U115A A141U,0.53
15,U109C G137A,1.45
16,C110U C146U,1.82
17,U109C G125U,1.27
18,C113A A121G,1.25
19,A117G G144A,0.73
20,A107G U115A,0.95
21,A107G U115C,1.99
22,C110U A121U,1.43
